B1: ADP-ribosylation factor 3 (Arabidopsis thaliana (Mouse-ear cress)), P40940 (parent)
chain: MGILFTRMFSSVFGNKEARILVLGLDNAGKTTILYRLQMGEVVSTIPTIGFNVETVQYNNIKFQVWDLGGQTSIRPYWRCYFPNTQAVIYVVDSSDTDRIGVAKEEFHAILEEDELKGAVVLIFANKQDLPGALDDAAVTEALELHKIKSRQWAIFKTCAVKGEGLFEGLDWLSNTLKSGSG
partner: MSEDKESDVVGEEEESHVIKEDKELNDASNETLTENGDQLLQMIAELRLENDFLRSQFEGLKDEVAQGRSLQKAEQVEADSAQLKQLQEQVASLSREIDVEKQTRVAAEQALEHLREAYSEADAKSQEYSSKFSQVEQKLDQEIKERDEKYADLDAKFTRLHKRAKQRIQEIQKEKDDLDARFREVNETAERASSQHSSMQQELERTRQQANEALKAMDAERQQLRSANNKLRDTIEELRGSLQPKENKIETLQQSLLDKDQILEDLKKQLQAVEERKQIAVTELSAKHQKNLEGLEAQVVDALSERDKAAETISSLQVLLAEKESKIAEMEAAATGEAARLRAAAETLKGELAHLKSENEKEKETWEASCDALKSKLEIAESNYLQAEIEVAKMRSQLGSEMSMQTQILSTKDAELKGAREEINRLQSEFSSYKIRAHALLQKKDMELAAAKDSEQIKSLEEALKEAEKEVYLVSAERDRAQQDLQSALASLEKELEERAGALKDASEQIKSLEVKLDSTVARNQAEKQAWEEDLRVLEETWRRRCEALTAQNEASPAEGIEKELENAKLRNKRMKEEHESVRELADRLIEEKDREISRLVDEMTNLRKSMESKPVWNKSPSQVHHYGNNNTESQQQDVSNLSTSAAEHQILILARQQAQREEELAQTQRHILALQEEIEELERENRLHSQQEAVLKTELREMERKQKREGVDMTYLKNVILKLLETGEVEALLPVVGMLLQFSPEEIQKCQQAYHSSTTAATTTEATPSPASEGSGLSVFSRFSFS
B2: Protein GRIP (Arabidopsis thaliana (Mouse-ear cress)), Q8S2T0 (parent)
chain: B1 partner
partner: B1 chain

Variants of: B1
Settings: with grip_arath GRIP, Q8S2T0

Row | Variant | effect of a mutation on the interaction
1 | MGILFTRMFSSVFGNKEARILVLGLDNAGKNTILYRLQMGEVVSTIPTIGFNVETVQYNNIKFQVWDLGGQTSIRPYWRCYFPNTQAVIYVVDSSDTDRIGVAKEEFHAILEEDELKGAVVLIFANKQDLPGALDDAAVTEALELHKIKSRQWAIFKTCAVKGEGLFEGLDWLSNTLKSGSG [T31N] | disrupting interaction

Variants of: B1
Settings: with grip_arath GRIP

Row | Variant | effect of a mutation on the interaction
2 | MGILFTRMFSSVFGNKEARILVLGLDNAGKTTILYRLQMGEVVSTIPTIGFNVETVQYNNIKFQVWDLGGLTSIRPYWRCYFPNTQAVIYVVDSSDTDRIGVAKEEFHAILEEDELKGAVVLIFANKQDLPGALDDAAVTEALELHKIKSRQWAIFKTCAVKGEGLFEGLDWLSNTLKSGSG [Q71L] | causing an interaction

Variants of: B2
Settings: with arf3_arath ARF3, P40940

Row | Variant | effect of a mutation on the interaction
3 | Y717A | decreasing interaction
